Measured values as given in publication PMC8387365.
pKd: −log10 of the molar value.

How the values were obtained:
PRC1(1-486) = PRC1(1-486) (UniProt O43663); test: BLI
[1] = biological target: full-length PRC1 (Protein Regulator of Cytokinesis-1) (UniProt O43663); test: BLI
[2] = biological target: microtubules polymerised from tubulin; test: TIRF microscopy, GFP intensity on immobilised microtubules
Chain of microtubules polymerised from tubulin (P68363 whole entry, chain 1 of 2): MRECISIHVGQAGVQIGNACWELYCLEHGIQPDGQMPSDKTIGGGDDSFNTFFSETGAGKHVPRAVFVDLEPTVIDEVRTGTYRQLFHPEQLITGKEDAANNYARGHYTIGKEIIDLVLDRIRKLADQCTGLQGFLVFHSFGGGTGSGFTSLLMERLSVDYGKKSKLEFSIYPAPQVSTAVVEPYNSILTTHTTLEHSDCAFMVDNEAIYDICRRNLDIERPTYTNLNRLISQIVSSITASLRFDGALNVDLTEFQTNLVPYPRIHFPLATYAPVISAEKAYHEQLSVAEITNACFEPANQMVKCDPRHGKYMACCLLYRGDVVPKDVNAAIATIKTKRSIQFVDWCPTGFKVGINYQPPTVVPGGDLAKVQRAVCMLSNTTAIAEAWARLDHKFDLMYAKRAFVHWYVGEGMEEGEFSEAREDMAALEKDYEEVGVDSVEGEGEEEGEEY
Chain of microtubules polymerised from tubulin (A8K068 whole entry, chain 2 of 2, further chain): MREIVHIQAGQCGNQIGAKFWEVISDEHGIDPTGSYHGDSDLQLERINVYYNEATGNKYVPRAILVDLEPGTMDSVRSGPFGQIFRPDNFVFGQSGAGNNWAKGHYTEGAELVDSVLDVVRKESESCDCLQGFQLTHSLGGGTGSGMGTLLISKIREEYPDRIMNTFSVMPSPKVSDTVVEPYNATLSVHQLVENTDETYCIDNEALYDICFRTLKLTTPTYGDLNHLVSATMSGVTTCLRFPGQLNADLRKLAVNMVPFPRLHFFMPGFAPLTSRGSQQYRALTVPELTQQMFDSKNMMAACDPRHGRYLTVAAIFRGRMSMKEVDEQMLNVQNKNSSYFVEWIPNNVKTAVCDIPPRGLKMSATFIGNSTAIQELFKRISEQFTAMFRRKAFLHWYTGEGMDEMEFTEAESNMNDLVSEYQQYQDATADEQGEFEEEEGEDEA

Chain of PRC1(1-486) (O43663 1-486): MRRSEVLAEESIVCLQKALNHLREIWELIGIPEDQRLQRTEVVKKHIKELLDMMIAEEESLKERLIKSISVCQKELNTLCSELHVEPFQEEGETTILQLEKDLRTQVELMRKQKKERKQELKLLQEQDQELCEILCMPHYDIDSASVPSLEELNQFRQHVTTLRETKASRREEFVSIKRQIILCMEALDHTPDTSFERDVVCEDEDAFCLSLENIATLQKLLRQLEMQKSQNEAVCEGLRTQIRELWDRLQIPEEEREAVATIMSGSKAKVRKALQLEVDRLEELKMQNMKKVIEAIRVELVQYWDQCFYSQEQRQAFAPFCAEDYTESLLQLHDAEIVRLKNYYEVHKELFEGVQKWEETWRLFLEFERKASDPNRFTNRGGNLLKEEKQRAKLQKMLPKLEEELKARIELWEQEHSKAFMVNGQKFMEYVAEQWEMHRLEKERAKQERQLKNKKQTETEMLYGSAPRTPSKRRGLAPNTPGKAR
Chain of full-length PRC1 (Protein Regulator of Cytokinesis-1) (O43663 whole entry): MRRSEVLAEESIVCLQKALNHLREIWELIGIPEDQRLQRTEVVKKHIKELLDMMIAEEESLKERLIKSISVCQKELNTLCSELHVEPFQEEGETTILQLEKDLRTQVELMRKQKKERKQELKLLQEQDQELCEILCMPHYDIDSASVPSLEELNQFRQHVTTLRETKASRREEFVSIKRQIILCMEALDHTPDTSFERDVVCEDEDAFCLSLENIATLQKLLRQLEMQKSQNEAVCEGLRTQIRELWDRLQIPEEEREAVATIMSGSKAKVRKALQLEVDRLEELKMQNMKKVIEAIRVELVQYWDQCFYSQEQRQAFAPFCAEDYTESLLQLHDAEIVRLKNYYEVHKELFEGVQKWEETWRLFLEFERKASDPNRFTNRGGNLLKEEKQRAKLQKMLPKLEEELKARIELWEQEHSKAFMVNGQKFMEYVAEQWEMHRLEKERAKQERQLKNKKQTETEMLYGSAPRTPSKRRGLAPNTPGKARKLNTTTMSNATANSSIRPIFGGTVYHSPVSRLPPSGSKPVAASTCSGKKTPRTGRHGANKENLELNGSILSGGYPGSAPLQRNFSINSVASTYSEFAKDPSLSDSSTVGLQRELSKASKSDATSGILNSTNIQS

Row | Substance | pKd (PRC1(1-486)) | pKd [1] | GFP intensity per pixel at 8 nM [2] | GFP intensity per pixel at 40 nM [2] | GFP intensity per pixel at 60 nM [2] | GFP intensity per pixel at 80 nM [2] | GFP intensity per pixel at 160 nM [2] | GFP intensity per pixel at 400 nM [2] | GFP intensity per pixel at 800 nM [2]
1 | CLASP1(654-1471)-GFP (domain or fragment) | 5.98 | 5.92 | – | – | – | – | – | – | –
2 | full-length CLASP1-GFP (natural protein) | – | – | 26.9 | 95.3 | 109 | 400 | 398 | 754 | 854
